We go through 15 molecules from patent US7070973B2, “Butyrylcholinesterase variants and methods of use” (priority 2000, dated 2006).

Substitutions are numbered along the chain they refer to. In names and notes the source's numbering stands. Several values for one entry are separate records, joined by “and”; a condition that tells them apart may be missing. Equal values may be shown once. Read-outs that look alike come from different tables or passages of the source.

Data set [1] is described as follows: Isotope tracer cocaine hydrolysis assay, Lineweaver-Burk plot. The data set is classed as biochemical. To be noted: 2 hour incubation at 37° C., x intercept of double-reciprocal plot. The text has this: (§1) At the conclusion of the isotope tracer assay, an aliquot of the reaction mix is acidified in order to take advantage of the solubility difference between the product and the substrate at pH 3.0.

For data set [2] the following is noted: Gatley 1991; Xie et al. 1999; read-out: Km for cocaine hydrolysis, previously published values; cited from earlier work.
Data set [3] deals with cocaine toxicity. To be noted: infusion of cocaine at 1 mg/kg/min, catecholamine levels standardized; cited from earlier work.
Data set [4] can be described thus: Spectrophotometric (240 nm) cocaine binding and hydrolysis assay with purified butyrylcholinesterase variants. It counts as biochemical. The note with it: for Cocaine Binding or Cocaine Hydrolysis (result in words): Table 4. On the procedure:
[…]. Pharmacol. 41:1249–1254 (1991). Km values were determined in 0.1M potassium phosphate pH 7.0 at 30° C. for (−)-cocaine. Vmax values and Km values were calculated using Sigma Plot for Macintosh (Jandel Scientific, San Rafael, Calif.).
Once Vmax values and Km values were calculated, the number of active sites in each butyrylcholinesterase preparation was determined. The titration of active sites was performed with chlorpyrifos oxon (MET-674B, Chem Service, West Chester, Pa.), an inhibitor of butyrylcholinesterase. One molecule of chlorpyrifos oxon binds and inhibits one molecule of butyrylcholinesterase, which allows for calculation of the number of active sites. Based on the number of active sites, the kcat value for each variant was calculated (Table 3). […].

For data set [5] the following is noted: Xie et al. 1999; cited from earlier work.
For data set [6] the following is noted: stored at 4° C., after 18 months (Lynch et al.); cited from earlier work.
Data set [7] is described as follows: Microtiter [3H]-cocaine isotope tracer hydrolysis assay with immobilized butyrylcholinesterase variants. It counts as biochemical. The note with it: for increase in cocaine hydrolysis activity compared to human butyrylcholinesterase: region 5 library variants, Examples II through VI; for enhanced cocaine hydrolase activity (library screen): region five library, hydrolysis of [3H]-cocaine.
From the text: as §1
The supernatants isolated from each of the butyrylcholinesterase variant library clones contains variable butyrylcholinesterase enzyme concentrations.
At least three approaches are used to either increase the assay sensitivity or the assay signal.

By Km is commonly meant the substrate concentration at which the rate is half of its maximum. Regarding horse butyrylcholinesterase, the Km in data set [1] was ~37.6 µM; in data set [2], 38 µM and 45 µM. For the molecule `COC(=O)[C@H]1[C@@H](OC(=O)c2ccccc2)C[C@@H]2CC[C@H]1N2C` [cocaine], the LD90 in data set [3] is 16 mg/kg.

B1: A328Y (protein, UniProt P06276 29-602, looked up, variant A328Y)
Cholinesterase: EDDIIIATKNGKVRGMNLTVFGGTVTAFLGIPYAQPPLGRLRFKKPQSLTKWSDIWNATKYANSCCQNIDQSFPGFHGSEMWNPNTDLSEDCLYLNVWIPAPKPKNATVLIWIYGGGFQTGTSSLHVYDGKFLARVERVIVVSMNYRVGALGFLALPGNPEAPGNMGLFDQQLALQWVQKNIAAFGGNPKSVTLFGESAGAASVSLHLLSPGSHSLFTRAILQSGSFNAPWAVTSLYEARNRTLNLAKLTGCSRENETEIIKCLRNKDPQEILLNEAFVVPYGTPLSVNFGPTVDGDFLTDMPDILLELGQFKKTQILVGVNKDEGTYFLVYGAPGFSKDNNSIITRKEFQEGLKIFFPGVSEFGKESILFHYTDWVDDQRPENYREALGDVVGDYNFICPALEFTKKFSEWGNNAFFYYFEHRSSKLPWPEWMGVMHGYEIEFVFGLPLERRDNYTKAEEILSRSIVKRWANFAKYGNPNETQNNSTSWPVFKSTEQKYLTLNTESTRIMTKLRAQQCRFWTSFFPKVLEMTGNIDEAEWEWKAGFHRWNNYMMDWKNQFNDYTSKKESCVGL
On to B1, for which the Km in data set [4] ((−)-cocaine, 0.1M potassium phosphate pH 7.0 at 30° C.) was determined as 9 µM. Besides, the “kcat (hydrolysis rate)” value in data set [4] ((−)-cocaine, active sites titrated with chlorpyrifos oxon) came out at 0.17 s⁻¹. Moreover, the “Hydrolyzes cocaine faster than wild-type” value in data set [4] (compared to wild-type butyrylcholinesterase) is on record as “Hydrolyzes cocaine 4 times faster than wild-type”. Moreover, in data set [5], the “increase in cocaine hydrolysis activity compared to human butyrylcholinesterase” value (from here on “increase in cocaine hydrolysis activity”) is on record as “four”.

B2: L286H (protein, UniProt P06276 29-602, looked up, variant L286H)
Cholinesterase: B1 Cholinesterase with L286H, Y328A
B2: in data set [4], the “Cocaine Binding or Cocaine Hydrolysis (result in words)” value (shortened to “Cocaine Binding or Cocaine Hydrolysis”) is given as “Not a cocaine hydrolase”.

B3: butyrylcholinesterase (protein, listed as Homo sapiens)
chain: B1 Cholinesterase with Y328A
For the molecule B3, the original activity retained entry in data set [6] is “over 90%”.

B4: G439L (protein, UniProt P06276 29-602, looked up, variant G439L)
Cholinesterase: B1 Cholinesterase with Y328A, G439L
B4: the “Cocaine Binding or Cocaine Hydrolysis” value in data set [4] is reported as “No cocaine hydrolysis activity”.

B5: V288W (protein, UniProt P06276 29-602, looked up, variant V288W)
Cholinesterase: B1 Cholinesterase with V288W, Y328A
Regarding B5, the “Cocaine Binding or Cocaine Hydrolysis” value in data set [4] is listed as “Not a cocaine hydrolase”.

B6: P285Q (protein)
chain: B1 Cholinesterase with P285Q, Y328A
modifications: Human Butyrylcholinesterase variant
As for B6, in data set [7], the “increase in cocaine hydrolysis activity” value was “four and approximately four”; the “enhanced cocaine hydrolase activity (library screen)” value is recorded as “enhanced cocaine hydrolase activity”.

B7: A328G (protein, UniProt P06276 29-602, looked up, variant A328G)
Cholinesterase: B1 Cholinesterase with Y328G
For B7, in data set [4], the “Cocaine Binding or Cocaine Hydrolysis” value was “Not a cocaine hydrolase”.

B8: L286W (protein, UniProt P06276 29-602, looked up, variant L286W)
Cholinesterase: B1 Cholinesterase with L286W, Y328A
With B8, the “Cocaine Binding or Cocaine Hydrolysis” value in data set [4] is on record as “Not a cocaine hydrolase”.

B9: G116W (protein, UniProt P06276 29-602, looked up, variant G116W)
Cholinesterase: B1 Cholinesterase with G116W, Y328A
As for B9, the “Cocaine Binding or Cocaine Hydrolysis” value in data set [4] is given as “no activity”.

B10: A328H (protein, UniProt P06276 29-602, looked up, variant A328H)
Cholinesterase: B1 Cholinesterase with Y328H
For B10, in data set [4], the “Cocaine Binding or Cocaine Hydrolysis” value was “Not a cocaine hydrolase”.

B11: S287G (protein)
chain: B1 Cholinesterase with S287G, Y328A
modifications: Human Butyrylcholinesterase variant
For the molecule B11, in data set [7], the “increase in cocaine hydrolysis activity” value is reported as “four” and the “enhanced cocaine hydrolase activity (library screen)” value is “enhanced cocaine hydrolase activity”.

B12: S224Y (protein, UniProt P06276 29-602, looked up, variant S224Y)
Cholinesterase: B1 Cholinesterase with S224Y, Y328A
Take B12: in data set [4], the “Cocaine Binding or Cocaine Hydrolysis” value was “No activity”.

B13: P285S (protein)
chain: B1 Cholinesterase with P285S, Y328A
modifications: Human Butyrylcholinesterase variant
Turning to B13, in data set [7], the “increase in cocaine hydrolysis activity” value is on record as “approximately three” and the “enhanced cocaine hydrolase activity (library screen)” value is given as “enhanced cocaine hydrolase activity”.
